Measurements as given in US20190225650A1, “PEPTIDOMIMETIC MACROCYCLES AND USE THEREOF IN REGULATING HIF1ALPHA” (AILERON THERAPEUTICS, INC., priority 2013, published 2019).
Bridge positions count the residues as written; N and C are the ends. Square brackets hold non-standard residues; d marks the D form. S5 = C=CCCC[C@](C)(N)C(=O)O; Nle = CCCC[C@H](N)C(=O)O

B1: SP-37 (peptide)
peptide: Ac-FIDEEVL[Nle][S5]LVE[S5][Nle]ALDRI-NH2
modifications: staple 9-13
SMILES: CCCC[C@H](NC(=O)[C@H](CC(C)C)NC(=O)[C@@H](NC(=O)[C@H](CCC(=O)O)NC(=O)[C@H](CCC(=O)O)NC(=O)[C@H](CC(=O)O)NC(=O)[C@@H](NC(=O)[C@H](Cc1ccccc1)NC(C)=O)[C@@H](C)CC)C(C)C)C(=O)N[C@@]1(C)CCCC=CCCC[C@@](C)(C(=O)N[C@@H](CCCC)C(=O)N[C@@H](C)C(=O)N[C@@H](CC(C)C)C(=O)N[C@@H](CC(=O)O)C(=O)N[C@@H](CCCNC(=N)N)C(=O)N[C@H](C(N)=O)[C@@H](C)CC)NC(=O)[C@H](CCC(=O)O)NC(=O)[C@H](C(C)C)NC(=O)[C@H](CC(C)C)NC1=O
B2: SP-38 (peptide)
peptide: Ac-FIDEEVL[Nle][S5]LVI[S5]EALDRI-NH2
modifications: staple 9-13
SMILES: CCCC[C@H](NC(=O)[C@H](CC(C)C)NC(=O)[C@@H](NC(=O)[C@H](CCC(=O)O)NC(=O)[C@H](CCC(=O)O)NC(=O)[C@H](CC(=O)O)NC(=O)[C@@H](NC(=O)[C@H](Cc1ccccc1)NC(C)=O)[C@@H](C)CC)C(C)C)C(=O)N[C@@]1(C)CCCC=CCCC[C@@](C)(C(=O)N[C@@H](CCC(=O)O)C(=O)N[C@@H](C)C(=O)N[C@@H](CC(C)C)C(=O)N[C@@H](CC(=O)O)C(=O)N[C@@H](CCCNC(=N)N)C(=O)N[C@H](C(N)=O)[C@@H](C)CC)NC(=O)[C@H]([C@@H](C)CC)NC(=O)[C@H](C(C)C)NC(=O)[C@H](CC(C)C)NC1=O
B3: SP-39 (peptide)
peptide: Ac-FIDEEVL[Nle][S5]LVI[S5][Nle]ELDRI-NH2
modifications: staple 9-13
SMILES: CCCC[C@H](NC(=O)[C@H](CC(C)C)NC(=O)[C@@H](NC(=O)[C@H](CCC(=O)O)NC(=O)[C@H](CCC(=O)O)NC(=O)[C@H](CC(=O)O)NC(=O)[C@@H](NC(=O)[C@H](Cc1ccccc1)NC(C)=O)[C@@H](C)CC)C(C)C)C(=O)N[C@@]1(C)CCCC=CCCC[C@@](C)(C(=O)N[C@@H](CCCC)C(=O)N[C@@H](CCC(=O)O)C(=O)N[C@@H](CC(C)C)C(=O)N[C@@H](CC(=O)O)C(=O)N[C@@H](CCCNC(=N)N)C(=O)N[C@H](C(N)=O)[C@@H](C)CC)NC(=O)[C@H]([C@@H](C)CC)NC(=O)[C@H](C(C)C)NC(=O)[C@H](CC(C)C)NC1=O
B4: SP-198 (peptide)
peptide: Ac-FIAEXVL[Nle]SLVXA[Nle]AL-NH2
modifications: staple 5-12; not fully specified (residues 5, 12); printed as Ac-FIAE-$r8-VL-Nle-SLV-$-A-Nle-AL-NH2
B5: SP-250 (peptide)
peptide: Ac-FIDQAVF[Nle][S5]LVI[S5][Nle]ALL-NH2
modifications: staple 9-13
SMILES: CCCC[C@H](NC(=O)[C@H](Cc1ccccc1)NC(=O)[C@@H](NC(=O)[C@H](C)NC(=O)[C@H](CCC(N)=O)NC(=O)[C@H](CC(=O)O)NC(=O)[C@@H](NC(=O)[C@H](Cc1ccccc1)NC(C)=O)[C@@H](C)CC)C(C)C)C(=O)N[C@@]1(C)CCCC=CCCC[C@@](C)(C(=O)N[C@@H](CCCC)C(=O)N[C@@H](C)C(=O)N[C@@H](CC(C)C)C(=O)N[C@@H](CC(C)C)C(N)=O)NC(=O)[C@H]([C@@H](C)CC)NC(=O)[C@H](C(C)C)NC(=O)[C@H](CC(C)C)NC1=O
B6: SP-325 (peptide)
peptide: Ac-LLQ[S5]EEL[S5]RALDQVNIDE[S5]VL[Nle][S5]LVIE[Nle]G-NH2
modifications: staple 19-23, 4-8
SMILES: CCCC[C@H](NC(=O)[C@H](CCC(=O)O)NC(=O)[C@@H](NC(=O)[C@@H](NC(=O)[C@H](CC(C)C)NC(=O)[C@]1(C)CCCC=CCCC[C@](C)(NC(=O)[C@H](CCC(=O)O)NC(=O)[C@H](CC(=O)O)NC(=O)[C@@H](NC(=O)[C@H](CC(N)=O)NC(=O)[C@@H](NC(=O)[C@H](CCC(N)=O)NC(=O)[C@H](CC(=O)O)NC(=O)[C@H](CC(C)C)NC(=O)[C@H](C)NC(=O)[C@H](CCCNC(=N)N)NC(=O)[C@]2(C)CCCC=CCCC[C@](C)(NC(=O)[C@H](CCC(N)=O)NC(=O)[C@H](CC(C)C)NC(=O)[C@H](CC(C)C)NC(C)=O)C(=O)N[C@@H](CCC(=O)O)C(=O)N[C@@H](CCC(=O)O)C(=O)N[C@@H](CC(C)C)C(=O)N2)C(C)C)[C@@H](C)CC)C(=O)N[C@@H](C(C)C)C(=O)N[C@@H](CC(C)C)C(=O)N[C@@H](CCCC)C(=O)N1)C(C)C)[C@@H](C)CC)C(=O)NCC(N)=O
B7: SP-28 (peptide)
peptide: Ac-FIDEEVLA[S5]LVI[S5]AALDR-NH2
modifications: staple 9-13
SMILES: CC[C@H](C)[C@H](NC(=O)[C@H](Cc1ccccc1)NC(C)=O)C(=O)N[C@@H](CC(=O)O)C(=O)N[C@@H](CCC(=O)O)C(=O)N[C@@H](CCC(=O)O)C(=O)N[C@H](C(=O)N[C@@H](CC(C)C)C(=O)N[C@@H](C)C(=O)N[C@@]1(C)CCCC=CCCC[C@@](C)(C(=O)N[C@@H](C)C(=O)N[C@@H](C)C(=O)N[C@@H](CC(C)C)C(=O)N[C@@H](CC(=O)O)C(=O)N[C@@H](CCCNC(=N)N)C(N)=O)NC(=O)[C@H]([C@@H](C)CC)NC(=O)[C@H](C(C)C)NC(=O)[C@H](CC(C)C)NC1=O)C(C)C
B8: SP-29 (peptide)
peptide: Ac-DFIDEEVL[Nle][S5]LVI[S5][Nle]ALDRI-NH2
modifications: staple 10-14
SMILES: CCCC[C@H](NC(=O)[C@H](CC(C)C)NC(=O)[C@@H](NC(=O)[C@H](CCC(=O)O)NC(=O)[C@H](CCC(=O)O)NC(=O)[C@H](CC(=O)O)NC(=O)[C@@H](NC(=O)[C@H](Cc1ccccc1)NC(=O)[C@H](CC(=O)O)NC(C)=O)[C@@H](C)CC)C(C)C)C(=O)N[C@@]1(C)CCCC=CCCC[C@@](C)(C(=O)N[C@@H](CCCC)C(=O)N[C@@H](C)C(=O)N[C@@H](CC(C)C)C(=O)N[C@@H](CC(=O)O)C(=O)N[C@@H](CCCNC(=N)N)C(=O)N[C@H](C(N)=O)[C@@H](C)CC)NC(=O)[C@H]([C@@H](C)CC)NC(=O)[C@H](C(C)C)NC(=O)[C@H](CC(C)C)NC1=O
B9: SP-42 (peptide)
peptide: Ac-FIDEEVL[Nle][S5]LVI[S5][Nle]ALDRE-NH2
modifications: staple 9-13
SMILES: CCCC[C@H](NC(=O)[C@H](CC(C)C)NC(=O)[C@@H](NC(=O)[C@H](CCC(=O)O)NC(=O)[C@H](CCC(=O)O)NC(=O)[C@H](CC(=O)O)NC(=O)[C@@H](NC(=O)[C@H](Cc1ccccc1)NC(C)=O)[C@@H](C)CC)C(C)C)C(=O)N[C@@]1(C)CCCC=CCCC[C@@](C)(C(=O)N[C@@H](CCCC)C(=O)N[C@@H](C)C(=O)N[C@@H](CC(C)C)C(=O)N[C@@H](CC(=O)O)C(=O)N[C@@H](CCCNC(=N)N)C(=O)N[C@@H](CCC(=O)O)C(N)=O)NC(=O)[C@H]([C@@H](C)CC)NC(=O)[C@H](C(C)C)NC(=O)[C@H](CC(C)C)NC1=O

Molecular target: T1, His6-tagged p300 (AA 323-423) (UniProt Q09472 323-423)
T1 construct: range 323-423; also called p300-CH; not shown: His6 tag
Experiment: TR-FRET HIF1a/p300 displacement; grade = IC50 >700 nM
Method: The ability of peptides to displace HIF1α c-terminal trans-activation domain from p300-CH was measured by a TR FRET assay. […] The complex was diluted to 300 nM final in complete assay media and competitor peptides were added. The complete assay media contained 150 mM NaCl (Sigma +S5150 or equivalent), 20 mM HEPES pH 7.4 (Boston Bioproducts, Ashland, Mass.; #BB-2076), 7.5 mM CHAPS (Thermo #28300 or equivalent), and 1 mM DTT. Protein and peptide were incubated at room temperature for 1 hour before the addition of anti-Flag-K and anti-6×HIS-D2 (CisBio, Bedford Mass.) HTRF reconstitution buffer (50 mM Phosphate pH 7, 0.8 Potassium Flouride, BSA 0.2%)¹ to a final concentration of 0.5 μM and 4 nM respectively. The reaction continued for an additional two hours at room temperature. The reaction was read on a TECAN F500 plate reader with settings recommended by CisBio. The ratio of donor to acceptor fluorescence was calculated. The resulting data was analyzed with Graphpad Prism 5.0. IC50 values were calculated for both proteins using the One Site Fit-LogIC50 equation and presented in the column “IC₅₀ (nM) (HIF1α_p300 Displacement+CHAPS)” of Table 6. ¹ Cisbio USA, Bedford, Mass.; 61HISDLB (lot 007A), 61FG2KLB (024A), HTRF Buffer (62RB3RDF)

T1 sequence (Q09472 323-423 limits assumed): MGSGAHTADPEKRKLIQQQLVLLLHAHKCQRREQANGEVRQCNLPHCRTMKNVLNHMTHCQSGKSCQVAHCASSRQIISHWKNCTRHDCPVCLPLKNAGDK

IC50, > 700 nM:
B1
B2
B3
B4
B5
B6
B7
B8
B9
